One data set has as its target Arpp21 61-260 (UniProt Q9DCB4 61-260). In words: ITC; 25 C, TCEP; panel label, Methods and text say 61-260, legend says 130-260; 20 mM sodium phosphate pH 6.5, 300 mM NaCl, 2 mM DTT (TCEP instead of DTT for ITC); NMR 298 K, 10% D2O, 50 uM protein; ITC 25 C, 20 uM protein, 200 uM RNA in syringe. Conditions: protein: recombinant; tags: His-GB1 tag, TEV-cleaved.
The next data set addresses Arpp21 1-330 (UniProt Q9DCB4 1-330). In words: ITC; 25 C, TCEP; 20 mM sodium phosphate pH 6.5, 300 mM NaCl, 2 mM DTT (TCEP instead of DTT for ITC); NMR 298 K, 10% D2O, 50 uM protein; ITC 25 C, 20 uM protein, 200 uM RNA in syringe. The settings on record: protein: recombinant; tags: His-GB1 tag, TEV-cleaved.

Sequence of Arpp21 1-330 (Q9DCB4 1-330): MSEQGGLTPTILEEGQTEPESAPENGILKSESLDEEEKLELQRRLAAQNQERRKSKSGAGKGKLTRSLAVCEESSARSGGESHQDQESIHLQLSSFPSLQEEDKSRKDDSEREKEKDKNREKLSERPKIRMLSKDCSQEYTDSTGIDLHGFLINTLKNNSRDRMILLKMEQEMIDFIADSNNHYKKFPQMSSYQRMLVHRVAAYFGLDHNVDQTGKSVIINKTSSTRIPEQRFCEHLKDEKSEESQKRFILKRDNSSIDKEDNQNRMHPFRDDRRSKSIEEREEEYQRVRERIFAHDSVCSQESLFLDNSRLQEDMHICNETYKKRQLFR
Sequence of Arpp21 61-260 (Q9DCB4 61-260): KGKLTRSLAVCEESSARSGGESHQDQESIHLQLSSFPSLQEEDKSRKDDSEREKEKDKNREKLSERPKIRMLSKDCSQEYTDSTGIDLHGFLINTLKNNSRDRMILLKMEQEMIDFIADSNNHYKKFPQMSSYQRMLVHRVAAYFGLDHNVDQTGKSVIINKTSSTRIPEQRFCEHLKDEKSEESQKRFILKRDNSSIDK

B1: U9 RNA (ssRNA)
RNA: UUUUUUUUU
In the case of B1, the Kd is 4.8 µM in the data set with Arpp21 61-260 and 4.7 µM in the data set with Arpp21 1-330.

The record behind these values is paper PMC10928157, “The thymocyte-specific RNA-binding protein Arpp21 provides TCR repertoire diversity by binding to the 3’-UTR and promoting Rag1 mRNA expression”.
